Measured values taken from patent publication US20240368233A1 (University of Washington, published 2024).

T1: 101B62
T1 construct: also called LHD101B62
T1 chain: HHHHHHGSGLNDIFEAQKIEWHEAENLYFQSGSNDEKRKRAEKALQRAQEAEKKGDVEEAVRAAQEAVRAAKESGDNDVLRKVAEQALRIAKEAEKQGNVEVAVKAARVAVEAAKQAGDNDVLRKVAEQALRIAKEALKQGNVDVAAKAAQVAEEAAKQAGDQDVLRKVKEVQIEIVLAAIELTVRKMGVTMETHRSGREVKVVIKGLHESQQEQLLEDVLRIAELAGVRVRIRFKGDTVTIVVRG

T2: LHD101 chainA
T2 construct: also called LHD101A
T2 chain: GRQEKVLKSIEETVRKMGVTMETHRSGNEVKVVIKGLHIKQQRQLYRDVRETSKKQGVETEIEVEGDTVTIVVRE

T3: LHD101 chainB
T3 construct: also called LHD101B
T3 chain: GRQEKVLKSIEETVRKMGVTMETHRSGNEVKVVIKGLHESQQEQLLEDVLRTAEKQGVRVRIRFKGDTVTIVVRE

T4: DF202
T4 construct: Bivalent connector
T4 chain: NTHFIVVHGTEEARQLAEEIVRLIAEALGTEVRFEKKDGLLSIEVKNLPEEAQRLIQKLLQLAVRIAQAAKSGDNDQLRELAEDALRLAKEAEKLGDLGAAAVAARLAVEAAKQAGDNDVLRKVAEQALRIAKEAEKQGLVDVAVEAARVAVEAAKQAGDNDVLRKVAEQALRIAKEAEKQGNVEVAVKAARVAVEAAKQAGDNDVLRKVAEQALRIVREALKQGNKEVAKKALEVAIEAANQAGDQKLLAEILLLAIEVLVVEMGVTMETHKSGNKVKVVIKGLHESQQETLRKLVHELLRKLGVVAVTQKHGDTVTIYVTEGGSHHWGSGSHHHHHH

T5: 274B53
T5 construct: also called LHD274B DHR53 stop
T5 chain: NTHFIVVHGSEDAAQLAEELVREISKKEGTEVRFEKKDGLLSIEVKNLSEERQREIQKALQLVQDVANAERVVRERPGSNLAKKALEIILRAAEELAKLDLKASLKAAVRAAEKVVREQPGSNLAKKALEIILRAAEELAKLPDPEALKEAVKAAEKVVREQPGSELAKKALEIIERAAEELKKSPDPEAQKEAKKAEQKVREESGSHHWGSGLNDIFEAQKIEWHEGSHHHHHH

B1: 101B14 (designed binder)
single chain, LHD101 chain B fused to DHR14: HHHHHHGSGLNDIFEAQKIEWHEAENLYFQSGSSEEVNERVKQLAEKAKEATDKEEVIEIVKELAELAKQSTDSELVNEIVKQLAEVAKEATDKELVIYIVKILAELAKQSTDSELVNEIVKQLAEVAKEATDKELVIYIVDILLKLAEQADDDELVEEIRKQLEEVAKEATDKELVEIIKAVIVLLVIISVVARMGVTMEIHKSGREVKVVIKGLHESQQEQLLEAVLRAAEEAGVRVRIRFKGDTVTIVVRG
notes: also called LHD101 B14

Experiments:
[1] = target: the molecule itself; assay: SEC titration of the protomer alone at several injection concentrations (Superdex 200, normalised A230); self-association
101B62 = target: T1, 101B62; assay: SEC binding assay (Superdex 200, normalised A230) of A, B and the mixture AB
Experimental: (§1) Complexes and individual components were diluted in 20 mM Tris pH 8.0, 100 mM NaCl. After o/n equilibration of the mixtures at room temperature or 4 degrees C., 500 ul of sample was injected onto a Superdex™ 200 10/300 increase GL (dimers, linear assemblies) or Superose™ 6 increase 10/300 GL (symmetric assemblies) (all columns from GE healthcare) using the absorbance at 230 nm or 473 nm (for GFP tagged components) as read-out. Dimers were mixed at monomer concentrations of 5 μM or higher. Trimer and ABCD tetramer mixtures contained 5 μM of the bivalent connector, and 7.5 μM of each terminal cap (lower absolute concentrations with the same ratios were used for some trimers). ABCA tetramer mixtures contained 5 μM per bivalent connector and 15 μM terminal cap. The hexamer mixture contained 3 μM of components C and D, 3.6 μM of B and E, and 4.4 μM of A and F. The branched assembly shown in FIG. 4A contained 2.8 μM of the trivalent connector and 4 μM of each cap. For the exchange experiment shown in FIG. 5A, the ABC trimer was preincubated at concentrations of 6 μM B and 9 μM each of A and C. C′ was then added to reach a final concentration of 2 μM B, 3 μM each of A and C, and 6 μM C′.

101B14 = target: B1; assay: as above
Experimental: as §1

LHD101 chainA = target: T2, LHD101 chainA; assay: BLI steady-state titration, biotinylated unfused LHD101A on a streptavidin sensor
From the text: FIG. 8A-E. Characterization LHD binding in vitro. A: Designed models heterodimers (top row). Middle row, SEC binding experiments performed on a Superdex™ 75 column. Bottom row, biolayer interferometry kinetic binding traces. […] C: Kinetic binding traces from BLI. Equilibrium responses were used to fit equilibrium binding curves D: Equilibrium binding curves of LHDs from biolayer interferometry binding assays with data from C. […] Biotinylated unfused protomers were immobilized on streptavidin coated biosensors.
Biolayer interferometry experiments were performed on an OctetRED96 BLI system (ForteBio, Menlo Park, CA). Streptavidin coated biosensors were first equilibrated for at least 10 minutes in Octet buffer (10 mM HEPES pH 7.4, 150 mM NaCl, 3 mM EDTA, 0.05% Surfactant P20) supplemented with 1 mg/ml Bovine Serum Albumin (SigmaAldrich). Enzymatically biotinylated designs were immobilized onto the biosensors by dipping the biosensors into a solution with 10-50 nM protein for 30-120 s. This was followed by dipping in fresh octet buffer to establish a baseline for 120 s. Titration experiments were performed at 25° C. while rotating at 1,000 r.p.m. […]

LHD101 chainB = target: T3, LHD101 chainB; assay: BLI, dissociation rate constant (kdis)
Experimental: Biolayer interferometry experiments were performed on an OctetRED96 BLI system (ForteBio, Menlo Park, CA). Streptavidin coated biosensors were first equilibrated for at least 10 minutes in Octet buffer (10 mM HEPES pH 7.4, 150 mM NaCl, 3 mM EDTA, 0.05% Surfactant P20) supplemented with 1 mg/ml Bovine Serum Albumin (SigmaAldrich). Enzymatically biotinylated designs were immobilized onto the biosensors by dipping the biosensors into a solution with 10-50 nM protein for 30-120 s. This was followed by dipping in fresh octet buffer to establish a baseline for 120 s. Titration experiments were performed at 25° C. while rotating at 1,000 r.p.m. Association of designs was allowed by dipping biosensors in solutions containing designed protein diluted in octet buffer until equilibrium was approached followed by dissociation by dipping the biosensors into fresh buffer solution in order to monitor the dissociation kinetics. Steady-state and global kinetic fits were performed using the manufacturer's software (Data Analysis 9.1) assuming a 1:1 binding model.

DF202 = target: T4, DF202; assay: SEC of mixed components; trimer listed in Table 6
Experimental: as §1

274B53 = target: T5, 274B53; assay: SEC binding assay (Superdex 200, normalised A230) of A, B and the mixture AB
Experimental: as §1

Binder	binding result [1]	koff (LHD101 chainB) [s⁻¹]	further results
B1	no binding (tested: 114.0 uM)	–	–
LHD101 A10 (designed binder) single chain, LHD101 chain A fused to DHR10: HHHHHHGSGLNDIFEAQKIEWHEAENLYFQSGSSSEKEELRERLVKIVVENAKRKGDDTEEAREAAREAFELVREAAERAGIDSSEVLELAIRLIKEVVENAQREGYDISEAARAAAEAFKRVAEAAKRAGITSSEVLELAIILIKLVVELAQRKGYDISEAARAAAELFKRLAEALKRAGKTSERALALLILLLAIEILVRDMGVTMETHPSGNEVKVVIKGLHIKQQRQLYRLVREAAKLLGVEVEIEVEGDTVTIVVRGGS	–	–	binding result (101B62): binds; binding result (101B14): binds
101B4 (designed binder, also called LHD101B4) HHHHHHGSGLNDIFEAQKIEWHEAENLYFQSGSYEDECEEKARRVAEKVERLKRSGTSEDEIAEEVAREISEVIRTLKESGSSYEVICECVARIVAEIVEALKRSGTSEDEIAEIVARVISEVIRTLKESGSSYEVICECVARIVAEIVEALKRSGTSEEEIAEIVARVIQEVIRTLKESGSSYEVIRECLRRILEEVIEALKRSGVDSSEIVLIIIKIAVAVMGVTMEEHRSGNEVKVVIKGLHESQQEELLELVLRAAELAGVRVRIRFKGDTVTIVVRG	–	–	binding result (LHD101 chainA): binds
29B53 (designed binder, also called LHD29B53) SSIFLLSNVDESARQLAEELVREISKKEGTEVRFEKDDGFLTIEVKNLSEERLREIARALQLIVDVANAERVVRERPGSNLAKKALEIILRAAEELAKLPLKASLKAAVIAAELVVREQPGSNLAKKALEIILRAAEELAKLPDPEALKEAVKAAEKVVREQPGSELAKKALEIIERAAEELKKSPDPEAQKEAKKAEQKVREERPGSSGSHHHHHH	binds	–	–
LHD101A V69Q (designed binder) GRQEKVLKSIEETVRKMGVTMETHRSGNEVKVVIKGLHIKQQRQLYRDVRETSKKQGVETEIEVEGDTQTIVVRE	–	0.00653	–
LHD101A_Q42M (designed binder) GRQEKVLKSIEETVRKMGVTMETHRSGNEVKVVIKGLHIKQMRQLYRDVRETSKKQGVETEIEVEGDTVTIVVRE	–	0.00941	–
LHD101A_T70W (designed binder) GRQEKVLKSIEETVRKMGVTMETHRSGNEVKVVIKGLHIKQQRQLYRDVRETSKKQGVETEIEVEGDTVWIVVRE	–	0.0102	–
LHD101A_R43V (designed binder) GRQEKVLKSIEETVRKMGVTMETHRSGNEVKVVIKGLHIKQQVQLYRDVRETSKKQGVETEIEVEGDTVTIVVRE	–	0.0113	–
278B (designed binder, also called LHD278 B; LHD278 chainB) GGSTVTFDITNIDWKSAELIMLAVYDIAQQEGTDVTFSFKEGELQITVKNLHEKWKRLIEMLIEACRRAQDPDPESLKEAVRIAEELVRLHPGNPLARAALKVILTAAEELAKLPDPEALKEAVKAAEKVVREQPGSNLAKKALEIILRAAEELAKLPDPEALKEAVKAAEKVVREQPGSELAKKALEIIERAAEELKKSPDPEAQKEAKKAEQKVREERPGSGGSGSHHWGSGSHHHHHH	binds	–	–
202B57 (designed binder) GSSVEFHIVNISEKAAQIIERAVRAISKELGTEVRFEKRDGELTIEVKNLHERRLQEILLLIEAVKLLLLALKAVKEDPSTDALRAVLEAVRFASEVAKRVENPEAVAVLAELVIELALEAVKEDPSTDALRAVLEAVRLASEVAKRVTDADKALKIAKLVIELALEAVKEDPSEEAKRAVEEAKRLAEEVSKRVTDPELSEKIRQLVKELEEEAQKEDPSGSHHWGSGLNDIFEAQKIEWHEGSHHHHHH	–	–	binding result (DF202): binds
LHD274 A76 (designed binder) single chain, LHD274 chain A fused to DHR76: GSTTNFHLINGSEEARQVIEEIVEIIARLAGTEVHFEKSDGTLEIRVKNLHEELERLIKELIELALLLQLAKKEAIEEAKKQGNPELVEWVARAAEVVKEVLRVAAEAAGAGNPDLAKAAAELARAVIEAIEEAVKQGNAELVEWVARAAKVAAEVIKVAIQAEKEGNRDLFRAALELVRAVIEAIEEAVKQGNAELVERVARLAKKAAELIKRAIRAEKEGNRDERREALERVREVIERIEELVRQGNGSHHWGSGLNDIFEAQKIEWHEGSHHHHHH	–	–	binding result (274B53): binds
202B64 (designed binder, also called LHD202 B64) single chain, LHD202 chain B fused to DHR64: GSSVEFHIVNIDEDVAQLIELAVKLISKEEGTEVRFEKRDGELTIEVKNLHEKDLQLILELIEALLLIARAIELLRQAKEKGSEEDLEKALRTAEESARRLKKVLEKAEKLGNLGVALAAVAGVVLVAELLLRIAKESGSEEALERALRVAEEAARLAKRVLELAEKLGDAEAALLAVELVVRVAELLLRIAKESGSEEALERALRVAEEAARLAKRVLELAEKQGDAEVARRAVELVKRVAELLERIARESGSEEAKERAERVREEARELQERVKELREREGDGSHHWGSGLNDIFEAQKIEWHEGSHHHHHH	binds	–	–
